Laboratory results as given in PMC2708935.
“And” between values parts separate entries of the source, which are not always exact repeats. Equal values may be shown once. Read-outs that look alike come from different tables or passages of the source.

Assays:
RAP domain 2 (D2) [1] = target: RAP domain 2 (D2) (UniProt P30533); assay: other fluorescence titration
RAP domain 1 (D1) [2] = assay: other fluorescence titration
RAP domain 3 (D3) [3] = assay: other fluorescence titration
[4] = target: receptor-associated protein (RAP), GST-free (UniProt P30533); assay: SEC
[5] = target: receptor-associated protein (RAP), GST-free (UniProt P30533); assay: native gel or EMSA
[6] = target: receptor-associated protein (RAP), GST-free (UniProt P30533); assay: ITC
[7] = target: receptor-associated protein (RAP), GST-free (UniProt P30533); assay: AUC
RAP domain 2 (D2) [8] = target: RAP domain 2 (D2) (UniProt P30533); assay: other fluorescence titration; remark: listed apart in the source
RAP domain 1 (D1) [9] = assay: other fluorescence titration; remark: listed apart in the source
RAP domain 3 (D3) [10] = assay: other fluorescence titration; remark: listed apart in the source
[11] = target: receptor-associated protein (RAP), GST-free (UniProt P30533); assay: other fluorescence titration
[12] = target: CR56, LRP fragment containing domains CR5 and CR6 (UniProt Q07954); assay: ITC
[13] = target: CR78, LRP fragment containing domains CR7 and CR8; assay: other fluorescence titration
[14] = target: CR678, LRP fragment containing domains CR6, CR7 and CR8; assay: other fluorescence titration
[15] = target: CR567, LRP fragment containing domains CR5, CR6 and CR7; assay: other fluorescence titration
[16] = target: CR45, LRP fragment containing domains CR4 and CR5; assay: other fluorescence titration
[17] = target: CR345, LRP fragment containing domains CR3, CR4 and CR5; assay: other fluorescence titration
[18] = target: CR56, LRP fragment containing domains CR5 and CR6 (UniProt Q07954); assay: other fluorescence titration
[19] = target: CR34, LRP fragment containing domains CR3 and CR4; assay: other fluorescence titration
[20] = target: CR89, LRP fragment containing domains CR8 and CR9; assay: other fluorescence titration
[21] = target: CR456, LRP fragment containing domains CR4, CR5 and CR6; assay: other fluorescence titration

CR56, LRP fragment containing domains CR5 and CR6 (UniProt Q07954), sequence (Q07954 932-1013): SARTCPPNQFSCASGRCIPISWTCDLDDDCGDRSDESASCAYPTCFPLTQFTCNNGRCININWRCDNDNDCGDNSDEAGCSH
CR56, LRP fragment containing domains CR5 and CR6 (from UniProt Q07954 932-1013) (domain or fragment), sequence (Q07954 932-1013): as above
RAP domain 1 (D1) (domain or fragment), sequence (P30533 35-357): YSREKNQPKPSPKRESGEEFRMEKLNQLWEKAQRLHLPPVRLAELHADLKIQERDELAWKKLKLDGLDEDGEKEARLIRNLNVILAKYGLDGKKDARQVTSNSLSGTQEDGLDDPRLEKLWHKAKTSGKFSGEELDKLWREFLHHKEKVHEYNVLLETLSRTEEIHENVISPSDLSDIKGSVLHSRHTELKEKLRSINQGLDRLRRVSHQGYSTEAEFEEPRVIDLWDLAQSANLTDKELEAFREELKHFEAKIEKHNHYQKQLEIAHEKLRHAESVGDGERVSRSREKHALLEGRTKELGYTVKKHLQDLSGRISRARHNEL
RAP domain 3 (D3) (domain or fragment), sequence (P30533 35-357): as above
receptor-associated protein (RAP), GST-free, sequence (P30533 35-357): as above
CR456, LRP fragment containing domains CR4, CR5 and CR6 (domain or fragment), sequence (Q07954 20-4544): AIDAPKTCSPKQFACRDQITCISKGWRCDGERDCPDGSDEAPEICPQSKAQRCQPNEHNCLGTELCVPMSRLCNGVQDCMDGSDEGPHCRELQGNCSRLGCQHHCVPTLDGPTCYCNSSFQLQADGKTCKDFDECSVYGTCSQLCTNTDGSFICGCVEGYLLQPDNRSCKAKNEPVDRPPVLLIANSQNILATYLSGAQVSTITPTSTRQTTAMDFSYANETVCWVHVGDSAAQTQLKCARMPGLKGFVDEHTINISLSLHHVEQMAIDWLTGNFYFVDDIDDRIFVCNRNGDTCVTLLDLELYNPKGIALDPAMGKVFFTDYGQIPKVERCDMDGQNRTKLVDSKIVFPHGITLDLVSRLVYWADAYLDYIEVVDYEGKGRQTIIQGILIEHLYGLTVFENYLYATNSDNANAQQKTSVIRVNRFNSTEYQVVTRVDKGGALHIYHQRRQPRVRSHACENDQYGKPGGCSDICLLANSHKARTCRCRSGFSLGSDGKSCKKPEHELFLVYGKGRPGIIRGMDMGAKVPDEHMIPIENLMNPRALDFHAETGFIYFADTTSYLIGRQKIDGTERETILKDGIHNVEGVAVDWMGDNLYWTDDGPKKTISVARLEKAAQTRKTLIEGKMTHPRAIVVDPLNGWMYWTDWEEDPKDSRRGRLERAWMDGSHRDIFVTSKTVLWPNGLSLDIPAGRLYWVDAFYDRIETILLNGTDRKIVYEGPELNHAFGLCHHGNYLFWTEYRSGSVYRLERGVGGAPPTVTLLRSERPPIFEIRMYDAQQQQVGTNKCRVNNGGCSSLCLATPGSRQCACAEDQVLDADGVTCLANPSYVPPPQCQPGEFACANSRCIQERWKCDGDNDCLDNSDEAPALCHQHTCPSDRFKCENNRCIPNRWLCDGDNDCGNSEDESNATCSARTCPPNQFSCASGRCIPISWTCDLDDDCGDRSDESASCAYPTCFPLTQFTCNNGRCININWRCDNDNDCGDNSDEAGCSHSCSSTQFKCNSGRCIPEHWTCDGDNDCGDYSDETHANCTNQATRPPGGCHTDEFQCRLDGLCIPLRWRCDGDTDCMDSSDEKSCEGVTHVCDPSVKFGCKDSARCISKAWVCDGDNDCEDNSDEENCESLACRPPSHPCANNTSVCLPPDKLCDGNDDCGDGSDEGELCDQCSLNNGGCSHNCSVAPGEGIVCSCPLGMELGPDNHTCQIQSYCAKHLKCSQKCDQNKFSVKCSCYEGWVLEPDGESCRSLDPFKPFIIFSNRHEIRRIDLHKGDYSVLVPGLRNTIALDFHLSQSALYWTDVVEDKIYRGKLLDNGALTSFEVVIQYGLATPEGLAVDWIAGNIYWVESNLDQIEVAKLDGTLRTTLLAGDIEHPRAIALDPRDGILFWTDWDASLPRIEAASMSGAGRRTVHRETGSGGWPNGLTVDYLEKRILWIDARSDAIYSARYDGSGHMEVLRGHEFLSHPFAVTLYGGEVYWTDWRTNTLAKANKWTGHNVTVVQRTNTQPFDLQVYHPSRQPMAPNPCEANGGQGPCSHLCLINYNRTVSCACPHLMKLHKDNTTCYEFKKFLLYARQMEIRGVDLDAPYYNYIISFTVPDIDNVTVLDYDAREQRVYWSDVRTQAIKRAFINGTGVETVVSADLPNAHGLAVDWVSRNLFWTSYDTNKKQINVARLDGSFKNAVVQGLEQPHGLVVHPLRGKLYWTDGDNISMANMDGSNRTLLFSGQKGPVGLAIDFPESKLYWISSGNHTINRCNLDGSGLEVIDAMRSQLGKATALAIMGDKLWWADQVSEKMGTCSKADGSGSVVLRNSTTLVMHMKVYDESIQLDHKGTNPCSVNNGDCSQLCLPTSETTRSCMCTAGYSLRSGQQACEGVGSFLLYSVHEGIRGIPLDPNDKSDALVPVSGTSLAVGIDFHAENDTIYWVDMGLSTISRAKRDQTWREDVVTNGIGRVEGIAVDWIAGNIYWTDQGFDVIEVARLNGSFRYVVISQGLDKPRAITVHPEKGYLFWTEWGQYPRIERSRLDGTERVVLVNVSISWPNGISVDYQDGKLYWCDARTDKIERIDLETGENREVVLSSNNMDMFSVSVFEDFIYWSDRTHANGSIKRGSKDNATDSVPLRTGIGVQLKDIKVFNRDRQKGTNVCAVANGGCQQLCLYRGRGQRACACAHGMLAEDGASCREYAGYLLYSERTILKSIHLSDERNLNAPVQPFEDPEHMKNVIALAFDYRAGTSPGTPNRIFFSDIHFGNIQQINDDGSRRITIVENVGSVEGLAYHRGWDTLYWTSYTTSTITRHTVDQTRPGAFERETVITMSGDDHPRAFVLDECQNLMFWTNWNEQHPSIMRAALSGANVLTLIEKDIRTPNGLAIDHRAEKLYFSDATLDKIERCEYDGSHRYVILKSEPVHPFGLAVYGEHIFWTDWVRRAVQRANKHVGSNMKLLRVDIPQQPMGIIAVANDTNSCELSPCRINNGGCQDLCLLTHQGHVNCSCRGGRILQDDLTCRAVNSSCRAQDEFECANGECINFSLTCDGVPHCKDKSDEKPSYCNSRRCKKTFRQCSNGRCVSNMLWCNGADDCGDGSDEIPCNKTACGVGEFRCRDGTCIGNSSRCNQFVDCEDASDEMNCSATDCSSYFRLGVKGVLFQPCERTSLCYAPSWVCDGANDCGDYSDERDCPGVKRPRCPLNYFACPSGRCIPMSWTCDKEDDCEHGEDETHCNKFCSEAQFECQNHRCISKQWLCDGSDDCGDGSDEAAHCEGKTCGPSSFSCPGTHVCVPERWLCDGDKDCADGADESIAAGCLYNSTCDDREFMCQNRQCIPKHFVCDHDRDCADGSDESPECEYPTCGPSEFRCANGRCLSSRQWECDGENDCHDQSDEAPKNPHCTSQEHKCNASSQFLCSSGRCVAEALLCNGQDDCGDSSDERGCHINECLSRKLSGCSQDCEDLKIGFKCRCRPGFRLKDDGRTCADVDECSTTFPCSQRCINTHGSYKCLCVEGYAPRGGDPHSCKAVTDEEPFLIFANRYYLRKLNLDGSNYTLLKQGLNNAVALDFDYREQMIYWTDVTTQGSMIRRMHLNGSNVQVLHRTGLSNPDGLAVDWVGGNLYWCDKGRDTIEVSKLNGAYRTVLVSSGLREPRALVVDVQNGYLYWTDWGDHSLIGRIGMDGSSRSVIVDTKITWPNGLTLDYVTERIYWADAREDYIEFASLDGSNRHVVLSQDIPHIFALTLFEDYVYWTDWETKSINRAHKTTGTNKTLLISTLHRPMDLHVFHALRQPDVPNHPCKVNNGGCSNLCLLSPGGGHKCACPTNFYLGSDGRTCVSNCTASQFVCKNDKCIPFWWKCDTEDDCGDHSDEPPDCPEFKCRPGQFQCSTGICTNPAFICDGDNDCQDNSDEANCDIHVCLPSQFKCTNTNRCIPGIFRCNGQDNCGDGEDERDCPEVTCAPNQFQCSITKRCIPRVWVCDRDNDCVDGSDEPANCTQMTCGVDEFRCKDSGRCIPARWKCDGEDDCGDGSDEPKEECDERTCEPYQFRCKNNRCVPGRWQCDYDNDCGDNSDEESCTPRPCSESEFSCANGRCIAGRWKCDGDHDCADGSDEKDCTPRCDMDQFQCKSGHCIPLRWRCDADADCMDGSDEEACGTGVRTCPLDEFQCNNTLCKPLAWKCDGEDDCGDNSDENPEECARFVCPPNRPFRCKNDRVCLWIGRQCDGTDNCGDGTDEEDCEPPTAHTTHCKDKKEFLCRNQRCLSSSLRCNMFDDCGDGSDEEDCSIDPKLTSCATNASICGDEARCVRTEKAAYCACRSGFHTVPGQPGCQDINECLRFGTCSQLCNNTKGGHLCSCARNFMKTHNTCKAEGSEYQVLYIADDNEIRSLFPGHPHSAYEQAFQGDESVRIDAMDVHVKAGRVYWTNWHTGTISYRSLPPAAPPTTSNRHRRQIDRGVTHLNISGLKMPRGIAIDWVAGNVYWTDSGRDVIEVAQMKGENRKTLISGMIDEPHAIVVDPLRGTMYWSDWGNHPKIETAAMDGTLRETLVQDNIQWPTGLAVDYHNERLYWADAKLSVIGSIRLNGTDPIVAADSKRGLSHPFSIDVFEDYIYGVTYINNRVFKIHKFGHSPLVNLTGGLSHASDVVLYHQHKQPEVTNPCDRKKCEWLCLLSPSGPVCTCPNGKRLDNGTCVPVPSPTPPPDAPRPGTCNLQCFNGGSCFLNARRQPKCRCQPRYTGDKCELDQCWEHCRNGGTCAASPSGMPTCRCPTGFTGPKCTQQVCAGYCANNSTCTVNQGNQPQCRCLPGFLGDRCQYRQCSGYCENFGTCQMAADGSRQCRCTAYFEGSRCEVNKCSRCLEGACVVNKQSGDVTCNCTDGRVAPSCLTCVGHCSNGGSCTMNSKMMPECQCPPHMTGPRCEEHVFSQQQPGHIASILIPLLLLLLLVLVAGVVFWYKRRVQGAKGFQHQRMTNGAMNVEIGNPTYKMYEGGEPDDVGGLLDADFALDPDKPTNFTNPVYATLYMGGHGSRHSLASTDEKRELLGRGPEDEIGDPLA
CR567, LRP fragment containing domains CR5, CR6 and CR7, sequence (Q07954 20-4544): as above
CR34, LRP fragment containing domains CR3 and CR4, sequence (Q07954 20-4544): as above

| Substance | stoichiometry N (equivalents of CR per RAP) [5] | Kd1 (site 1, fixed in the fit) [11] [nM] | Kd2 (site 2) [11] [nM] | Kd [12] [nM] | dH [12] [kcal/mol] | Kd [13] [nM] | Kd [14] [nM] | Kd [15] [nM] | Kd [16] [nM] | Kd [17] [nM] | Kd [18] [nM] | Kd [19] [nM] | Kd [20] [nM] | further results |
| --- | --- | --- | --- | --- | --- | --- | --- | --- | --- | --- | --- | --- | --- | --- |
| CR56, LRP fragment containing domains CR5 and CR6 (from UniProt Q07954 932-1013) (domain or fragment) | 2 | 20 | 56 | – | – | – | – | – | – | – | – | – | – | Kd (RAP domain 2 (D2) [1]): 46 nM; Kd (RAP domain 1 (D1) [2]): 26 nM; Kd (RAP domain 3 (D3) [3]): 41 nM; stoichiometry N [4]: 2.1 CR56 per RAP; dH (overall, two equivalents of CR56) [6]: -39.2 kcal/mol; stoichiometry N [6]: 2 CR56 per RAP; stoichiometry N [7]: 2 CR56 per RAP and 2.6 CR56 per RAP; Kd (RAP domain 2 (D2) [8]): 22 nM; Kd (RAP domain 1 (D1) [9]): 29 nM; Kd (RAP domain 3 (D3) [10]): 7 nM |
| CR345, LRP fragment containing domains CR3, CR4 and CR5 (domain or fragment) | 2 | 20 | 42 | – | – | – | – | – | – | – | – | – | – | stoichiometry N (CR345 per RAP) [4]: 1.8; stoichiometry N (CR345 per RAP) [7]: 2 and 2.3 |
| CR456, LRP fragment containing domains CR4, CR5 and CR6 (domain or fragment) | 2 | 10 | 36 | – | – | – | – | – | – | – | – | – | – | – |
| RAP domain 1 (D1) (domain or fragment) | – | – | – | 62 | -18.4 | 927 | 859 | 15 | 24 | 23 | 20 | 38 | 35 | – |
| RAP domain 2 (D2) (from UniProt P30533 35-357) (domain or fragment) | – | – | – | 270 | -8.8 | 116 | 44 | 18 | 30 | 23 | 54 | 19 | 42 | – |
| RAP domain 3 (D3) (domain or fragment) | – | – | – | 77 | -17.1 | 55 | 26 | 5.3 | 17 | – | 37 | 3.5 | 20 | Kd [21]: 8 nM |
